Assay results as given in patent US20190062389A1.

Columns and labels:
[1] = target: HLA-A*02:06 molecule (product of HLA-A*02:06 gene) on RA2.6 cells (human); test: flow cytometry, RA2.6 cells, peptide dilution series, BB7.2 staining
[2] = target: HLA-A*24:02 molecule (product of HLA-A*24:02 gene) on C1R-A24 cells (human); test: flow cytometry, acid-stripped C1R-A24 cells with added b2m, peptide dilution series, 17A12 staining
[3] = target: HLA-A*02:01 molecule (product of HLA-A*02:01 gene) on T2 cells (human); test: flow cytometry, T2 cells with added b2m, peptide dilution series, BB7.2 staining

B1: GPC3-derived peptide … (SEQ ID NO: 5) (peptide)
peptide: SLTPQAFEF
modifications: not checked
Binding Experiment Data (log Kd) (log Kd (concentration unit not given)) [1]: -4.52 | Binding Experiment Data (log Kd) (log Kd (concentration unit not given)) [2]: -7.11 | Binding Experiment Data (log Kd) (log Kd (concentration unit not given)) [3]: -4.93
